Data from paper PMC12196045.

Target: T1, OmpR-N6His (Xenorhabdus nematophila YL001) (UniProt D3VF01)
T1 sequence: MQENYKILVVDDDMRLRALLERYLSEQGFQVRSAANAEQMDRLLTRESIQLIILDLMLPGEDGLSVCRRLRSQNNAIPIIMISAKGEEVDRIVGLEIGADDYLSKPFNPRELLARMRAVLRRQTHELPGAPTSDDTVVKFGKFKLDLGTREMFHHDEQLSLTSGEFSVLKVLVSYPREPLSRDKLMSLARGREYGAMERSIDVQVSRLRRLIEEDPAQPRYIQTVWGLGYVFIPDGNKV
Assay: EMSA
Details: EMSA: 5x buffer 250 mM Tris, 250 mM KCl, 0.5 mM DTT, 50 mM MgCl2, 25% glycerol, pH 8.0 (1x: 50 mM Tris, 50 mM KCl, 0.1 mM DTT, 10 mM MgCl2, 5% glycerol); 30 min

Sequence | binding
TACGGCTACGTAAATAATAAAGCATTGGTTATGTCTGTTTGTTTTTTTGTACAAGGACGAATCTCAATTTAATTTCGAAAAATTGAGGTCATTGATCTTATTAATGGGTAGGTTGTTTACGATGTCAAAATGTTGCATTTGAAAACAGACAATCTTCCATTATTTAATGAGATCACTGCGATAAGTTTAGTGGAGTGAAATA (double strand) [PleuO202] | no binding
TTTGGATTGCATAAATTTTGTTAAGAAAGGAGAAAAATAAAACCCCATGATAGTCTAAATAGTAAAAAAATGAAGTAAACCTTTGCCCTATTTAATAGAGTAGAGTAATGTCACAATCGGTATTATTTTATTTGATACTGCTGAAGTAAAAACACCAGGTTAGTTAGTAATTAAAATCAAAAAAAAGTGATGAATAAACAATG (double strand) [PlrhA203] | no binding
CCGGCCTTTGGTAATAAATCAGGATAATTGAGTGATGTAAACGGGAAAACAAGGGGAAAAAACCAAAGCATAAGCAATGATTGCCAATACGGTTAATGGCCTTAAAATACATGTGGTTAGTTTCTATTGAATATGGGGTTTCGGTAAAAGTCATGGATATTGCGGGCATGGAGCATCTTGGGAGCTGAAAC (double strand) [PompR191] | no binding
TAATTCTTCCTCCAAGAGCAAAATACGATAACAAACTCCGCTATTCCATGACTTTACGTTCTTTTACATGCTCTGACGCTAGTTTGCAGCCGCAGGGTTATAGTTATCCACACTGAATCGAATAGAGCTATTCGAGAAAGCGGAGAAATTTAATGC (double strand) [PcpxR156] | no binding
